Here are results for 97 sequences from the supplement of paper PMC6755084.

For this series, the system named is F1*sub RNA substrate (template-directed ligation). The series is described as follows: fraction ligated after 30 min (ligated reads / total reads); higher = more ligase activity; sequences stand for … in GAGACCGCAACTGAAAAGTTGT…AGTTCTGCACGTAGAAGCAAAAGGC
The note with it: 42 °C. The procedure, abridged:
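Templates from an oligo pool were PCR-amplified, transcribed with T7 and gel-purified to give the ribozyme variants. Ligated and unligated products were separated on gel, reverse transcribed using barcoded primers, and read on a MiSeq. A quality filter of ≥20 was applied to core bases. Fraction ligated was taken as ligated reads as a share of all reads per variant.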
For the sequence “TATCACTGTCGTAAGACACTTGGATGGGTTA [3d1445]”, the fraction ligated is 0.775.
“TATCACTGTCGTAAGACACTTGGATGGGTTG [3d1446]”: the fraction ligated was 0.807.
Regarding “TATCACTGTCGTAAGACACTTGGATGGTTGA [3d1444]”, the fraction ligated is 0.382.
For “TATCACTGTCGTAAGACACTTGGTGGGTTGA [3d1442]” the value was 0.692; for “TATCACTGTCGTAAGACACTTTATGGGTTGA [3d1447]”, 0.0197.
“TATCACTGTCGTAAGACACTTTGAGGGTTGA [3d1449]”: the fraction ligated was 0.0155.
With “TATCACTGTCGTAAGACACTTTGATGGGTTA [3d1451]” the figure was 0.351.
With “TATCACTGTCGTAAGACACTTTGATGGGTTG [3d1452]” the figure was 0.754; with “TATCACTGTCGTAAGACACTTTGATGGTTGA [3d1450]”, 0.0354.
“TATCACTGTCGTAAGACACTTTGGAGGGTTA [3d1458]” yielded a fraction ligated of 0.0132.
Regarding “TATCACTGTCGTAAGACACTTTGGAGGGTTG [3d1459]”, the fraction ligated was determined as 0.0454.
With “TATCACTGTCGTAAGACACTTTGGAGGTTGA [3d1457]” the figure was 0.0147.
With “TATCACTGTCGTAAGACACTTTGGATGGGTT [3d1462]” the figure was 0.365; with “TATCACTGTCGTAAGACACTTTGGATGGGTTA [2d145]”, 0.773; with “TATCACTGTCGTAAGACACTTTGGATGGGTTG [2d146]”, 0.798.
With TATCACTGTCGTAAGACACTTTGGATGGGTTGA [1d7], the fraction ligated worked out at 0.806.
As to “TATCACTGTCGTAAGACACTTTGGATGGTTA [3d1460]”, the fraction ligated amounted to 0.272.
For “TATCACTGTCGTAAGACACTTTGGATGGTTG [3d1461]” the value was 0.33; for “TATCACTGTCGTAAGACACTTTGGATGGTTGA [2d144]”, 0.513.
With “TATCACTGTCGTAAGACACTTTGGGGGTTGA [3d1453]” the figure was 0.0319; with “TATCACTGTCGTAAGACACTTTGGTGGGTTA [3d1455]”, 0.0411; with “TATCACTGTCGTAAGACACTTTGGTGGGTTG [3d1456]”, 0.343.
On to “TATCACTGTCGTAAGACACTTTGGTGGTTGA [3d1454]”, for which the fraction ligated amounted to 0.0276.
For “TATCACTGTCGTAAGACACTTTGTGGGTTGA [3d1448]” the value was 0.0145; for “TATCACTGTCGTAAGACATTGGATGGGTTGA [3d1433]”, 0.818; for “TATCACTGTCGTAAGACATTTGATGGGTTGA [3d1434]”, 0.79.
For “TATCACTGTCGTAAGACATTTGGAGGGTTGA [3d1436]” the value was 0.431; for “TATCACTGTCGTAAGACATTTGGATGGGTTA [3d1438]”, 0.792.
For “TATCACTGTCGTAAGACATTTGGATGGGTTG [3d1439]” the value was 0.82.
“TATCACTGTCGTAAGACATTTGGATGGTTGA [3d1437]”: the fraction ligated worked out at 0.606.
With “TATCACTGTCGTAAGACATTTGGTGGGTTGA [3d1435]” the figure was 0.752.
Turning to “TATCACTGTCGTAAGACCTTGGATGGGTTGA [3d1426]”, the fraction ligated was determined as 0.809.
Sequence “TATCACTGTCGTAAGACCTTTGATGGGTTGA [3d1427]” had a fraction ligated of 0.773.
“TATCACTGTCGTAAGACCTTTGGAGGGTTGA [3d1429]” returned a fraction ligated of 0.133.
In turn, “TATCACTGTCGTAAGACCTTTGGATGGGTTA [3d1431]” displayed a fraction ligated of 0.808.
In the case of “TATCACTGTCGTAAGACCTTTGGATGGGTTG [3d1432]”, the fraction ligated is 0.835.
“TATCACTGTCGTAAGACCTTTGGATGGTTGA [3d1430]” displayed a fraction ligated of 0.628.
In the case of “TATCACTGTCGTAAGACCTTTGGTGGGTTGA [3d1428]”, the fraction ligated is 0.441.
For “TATCACTGTCGTAAGACTTTGGATGGGTTGA [3d1408]” the value was 0.856; for “TATCACTGTCGTAAGCACTTGGATGGGTTGA [3d1411]”, 0.745.
With “TATCACTGTCGTAAGCACTTTGATGGGTTGA [3d1412]” the figure was 0.686; with “TATCACTGTCGTAAGCACTTTGGAGGGTTGA [3d1414]”, 0.0753.
Take “TATCACTGTCGTAAGCACTTTGGATGGGTTA [3d1416]”: the fraction ligated was determined as 0.752.
For “TATCACTGTCGTAAGCACTTTGGATGGGTTG [3d1417]” the value was 0.816; for “TATCACTGTCGTAAGCACTTTGGATGGTTGA [3d1415]”, 0.175.
For “TATCACTGTCGTAAGCACTTTGGTGGGTTGA [3d1413]” the value was 0.11; for “TATCACTGTCGTAAGCATTTGGATGGGTTGA [3d1410]”, 0.797.
The sequence “TATCACTGTCGTAAGCCTTTGGATGGGTTGA [3d1409]” returned a fraction ligated of 0.815.
With “TATCACTGTCGTAGAACTTTGGATGGGTTGA [3d1388]” the figure was 0.886.
With “TATCACTGTCGTAGACACTTGGATGGGTTGA [3d1391]” the figure was 0.799; with “TATCACTGTCGTAGACACTTTGATGGGTTGA [3d1392]”, 0.787; with “TATCACTGTCGTAGACACTTTGGAGGGTTGA [3d1394]”, 0.13.
For “TATCACTGTCGTAGACACTTTGGATGGGTTA [3d1396]” the value was 0.791.
In turn, “TATCACTGTCGTAGACACTTTGGATGGGTTG [3d1397]” had a fraction ligated of 0.811.
For the sequence “TATCACTGTCGTAGACACTTTGGATGGGTTGA [2d134]”, the fraction ligated worked out at 0.861.
In turn, “TATCACTGTCGTAGACACTTTGGATGGTTGA [3d1395]” displayed a fraction ligated of 0.409.
With “TATCACTGTCGTAGACACTTTGGTGGGTTGA [3d1393]” the figure was 0.499; with “TATCACTGTCGTAGACATTTGGATGGGTTGA [3d1390]”, 0.864; with “TATCACTGTCGTAGACCTTTGGATGGGTTGA [3d1389]”, 0.837.
With “TATCACTGTCGTAGCACTTTGGATGGGTTGA [3d1387]”, the fraction ligated turned out to be 0.881.
Turning to “TATCACTGTCGTGACACTTTGGATGGGTTGA [3d1385]”, the fraction ligated is 0.854.
For “TATCACTGTCTAAACACTTTGGATGGGTTGA [3d1360]” the value was 0.816.
The sequence “TATCACTGTCTAAGAACTTTGGATGGGTTGA [3d1362]” yielded a fraction ligated of 0.849.
With “TATCACTGTCTAAGACACTTGGATGGGTTGA [3d1365]” the figure was 0.789.
In turn, “TATCACTGTCTAAGACACTTTGATGGGTTGA [3d1366]” had a fraction ligated of 0.77.
For “TATCACTGTCTAAGACACTTTGGAGGGTTGA [3d1368]” the value was 0.102; for “TATCACTGTCTAAGACACTTTGGATGGGTTA [3d1370]”, 0.762; for “TATCACTGTCTAAGACACTTTGGATGGGTTG [3d1371]”, 0.8.
Take “TATCACTGTCTAAGACACTTTGGATGGGTTGA [2d132]”: the fraction ligated came to 0.818.
With “TATCACTGTCTAAGACACTTTGGATGGTTGA [3d1369]” the figure was 0.239; with “TATCACTGTCTAAGACACTTTGGTGGGTTGA [3d1367]”, 0.34.
For “TATCACTGTCTAAGACATTTGGATGGGTTGA [3d1364]” the value was 0.803.
With “TATCACTGTCTAAGACCTTTGGATGGGTTGA [3d1363]” the figure was 0.795; with “TATCACTGTCTAAGCACTTTGGATGGGTTGA [3d1361]”, 0.771.
For “TATCACTGTCTAGACACTTTGGATGGGTTGA [3d1359]”, the fraction ligated stood at 0.822.
For the sequence “TATCACTGTGAAGACACTTTGGATGGGTTGA [3d1344]”, the fraction ligated worked out at 0.863.
With “TATCACTGTGTAAACACTTTGGATGGGTTGA [3d1346]” the figure was 0.845; with “TATCACTGTGTAAGAACTTTGGATGGGTTGA [3d1348]”, 0.882; with “TATCACTGTGTAAGACACTTGGATGGGTTGA [3d1351]”, 0.821.
With “TATCACTGTGTAAGACACTTTGATGGGTTGA [3d1352]” the figure was 0.355; with “TATCACTGTGTAAGACACTTTGGAGGGTTGA [3d1354]”, 0.0274.
“TATCACTGTGTAAGACACTTTGGATGGGTTA [3d1356]” came in with a fraction ligated of 0.823.
With “TATCACTGTGTAAGACACTTTGGATGGGTTG [3d1357]” the figure was 0.843; with “TATCACTGTGTAAGACACTTTGGATGGGTTGA [2d131]”, 0.887.
With “TATCACTGTGTAAGACACTTTGGATGGTTGA [3d1355]” the figure was 0.216; with “TATCACTGTGTAAGACACTTTGGTGGGTTGA [3d1353]”, 0.0456; with “TATCACTGTGTAAGACATTTGGATGGGTTGA [3d1350]”, 0.849.
The sequence “TATCACTGTGTAAGACCTTTGGATGGGTTGA [3d1349]” yielded a fraction ligated of 0.889.
For “TATCACTGTGTAAGCACTTTGGATGGGTTGA [3d1347]” the value was 0.878.
“TATCACTGTGTAGACACTTTGGATGGGTTGA [3d1345]” gave a fraction ligated of 0.886.
The sequence “TATCACTGTTAAGACACTTTGGATGGGTTGA [3d1343]” had a fraction ligated of 0.828.
For “TATCACTTCGAAGACACTTTGGATGGGTTGA [3d1313]” the value was 0.803.
For the sequence “TATCACTTCGTAAACACTTTGGATGGGTTGA [3d1315]”, the fraction ligated came to 0.792.
As to “TATCACTTCGTAAGAACTTTGGATGGGTTGA [3d1317]”, the fraction ligated turned out to be 0.868.
For “TATCACTTCGTAAGACACTTGGATGGGTTGA [3d1320]” the value was 0.796; for “TATCACTTCGTAAGACACTTTGATGGGTTGA [3d1321]”, 0.795; for “TATCACTTCGTAAGACACTTTGGAGGGTTGA [3d1323]”, 0.0267.
